Results: the DeepSol protein solubility set

Experiment: soluble on expression in E. coli; label from the status in PepcDB or PDB records
For “MGSDKIHHHHHHKGHRVTGSDANVYPPMSTQLEEQGIELIQGFDPSQLGDAGSYPDIVVIGNAMSRGNPCVEAVLNLGIPYTSGPQFLVDHILPERWVLAVSGTHGKTSTSSMLAWILEDCGYQPGFLIGGVPQNFGVSARLGESAFFVVEADEYDSAFFDKRSKFVHYHPRTLVINNLEFDHADIFADLAAIQKQFHHQIRTVPGQGKVIWPADSHAVKQTIDMGCWSEQETYHSSEVTKGWHAKALSDDCHEFEVFFDGQSQGVLDWALIGQHNIENAVMAIAAARHVGVAPSAAIDALARFVPPKRRLELLDTVNGVSVYDDFAHHPTAIATTIKGMRAKVGQTKITIVLEPRSNTMKSGVHKDTLAHSMLQADEAFLYQADTIDWNMKEAMEAAVIPVTVLHQIDDVVAKVAASAKPGDTIVVMSNGGFGGLHKKLLAALAVSPQLVEQAH”, the “soluble on expression in E. coli” value was “not soluble”.
With “MGSDKIHHHHHHLDGQALKQAVTPYFAGVLHEGLSRLKAEVYQEMEEIRLRAAQPLLLKIGESEWGLTSRGELTKKLPEAINASREDLYRTIASISDNSLYALEEEIRRGFITIPGGHRVGLAGQVIVQAAGIKGIKEFSSICFRLAREKKGCARTILPHIISTGTIVNTLIISPPRCGKTTILRDIARSISTGSSACPPHNIAIIDERSEIAGTHRGLAQLDVGIRSDVLDACPKSWGMMMAIRSLSPQVLIADEIGRKEDVEALQECVNAGVAVICSIHARNLEELSKRPLIKKLLSQGAFRLGVVLSRRNGPGTVEEIIRWD” the “soluble on expression in E. coli” value was “not soluble”.
For “MGSDKIHHHHHHLDRYPQEELSDGSFWKTPDDANKVVSDLYGYLSTWDQDNDINSDNATMGIKWAAGNVSKGIYDPADQGWSGDYANVRQCNLILSKIDEIPDYPEADKTKALGQVYFFRAYIYFNLIRSFGDVPYIDKPLDLKDMEGITRMPRAEVYEKIMADFDKAIAALPTEWGASDYGRVTKGAAMAMKARAALYYGNWDTAATEAKNVMDLGLYELYDKDNTGKYAELFWEKADGCDEFILVTQFNYPDKTHYLMGWECFPTKGWGGMNPTQSLVDAFEDSEGAPISKSKIYDPTDPFKNRDPRLEVDILHDGEEMYGVTIKVAPLASSGSTGINQHNDATETGYYGQKWLDPSLDPLSDGWNMGKDWVHIRYAEVLLTYAEAKNELQGLDPEAFDAVNQVRRRVGMPELQNTDPSKPTYCATQDDLRQRIRNEWRVEFCLEGGKRMWDIRRWGIAKDVLNAPFEGLKYKIVDNPNDPDKKVDGGKMCILYQGDPIILSGSRYSDNNYLFPVPQSEIDLNPALTQNPGY”, the “soluble on expression in E. coli” value was “not soluble”.
With “MGSDKIHHHHHHLFLNSLKLKDFRNYKSLQVDFSNSINVLIGDNAQGKTNLLEAIYILSMARSHRDNNDRDLINWSSDFSDITGEVQSKMGKFPLEVRITRTGKKVFVNHLTENRLSDYIGNLHTVLFAPEDLDLVKGSPGVRRKFIDSEFGQMSANYLFNLLQYRSVLKNRNAYLKNIKWIGNNPKIDEDYLKVLNDQLIDFGSEIIFQRFVLVKELEKYSYQIHKAISRNEKLTIKYASFSGIDDQSTKEEISKIFNNQLLKNKTRELFLKSTSVGPHHDDLKFSINGKEVGSFASQGQQRTTALSVRLAEIEMMKYETGEYPILLLDDVLSELDGDRQTQLLNFIQDKVQTFLTTTSLSDVERDLIKDPKIYQVKGGTLVNG” the “soluble on expression in E. coli” value was “not soluble”.
With “MGSDKIHHHHHHLTYNLLEGSGWMLKIYQVDSFTAVPFGGNPAGVCLLDEEIDERLYPRIASEMNLSETAFVRPGDEKNTYGLRWFTPKVEVKMCGHATLATAWIHFTELGVKGEISYETLSGKLGVRYVDGKIEMNFPSDNPYRVRIDEMLGRITGVEGECYYSSLTEKLLYIISSKSKLENLSFDFSLLETCDFGYTVKGLIVSSPGDEKFDFYSRYFAPWVGIDEDPVTGSAHTVLGPFWSEKLGRKNLRACQLSSRRGELDLELLPNSRILILGKAVTVIRGTISI” the “soluble on expression in E. coli” value was “not soluble”.
With “MGSDKIHHHHHHMAADHVHCASCGQPLTGSYYVLINRPERFCPQCIATRPRCSTCGAPLGNHFWKLHDGRQQCDACHAVAIYDPVQAQHLFQQTAGMLAEGMGLRLHVGVAFRLVDAPTMARLRGPTPPGQDTLGLYRRQNHVRVIYLLYGLPTLIFRITAAHEYAHAWQAEHCPLLRNEFLREGHAEWVAYQHLLQLGSHKAAARMLDENHPYHEPLRYLLQLEAQLGIEGVNRYMMRVDIE” the “soluble on expression in E. coli” value was “not soluble”.
With “MGSDKIHHHHHHMAAFQTAAQLARAVQSGETTPQQLLHGALARAEAVRGLNALVSLNSHAEEQAAAVQGRMQAGETLPLAGVPIVVKDNINVTGTRTTCGSRMLANYVSPYTATAAQKLQGAGAVIVGKANMDEFAMGSSTESSASGPTLNPWDHERVPGGSSGGSAVAVAAGISPVSLGSDTGGSVRQPAALCGVYGFKPTYGRVSRYGLVAYASSLDQIGPFARSAEDLALLMNVIAGHDPRDATSLDAPARFAVGGADSLRGLRVGVIRESLGGNTPGVEAALGATLDALRGAGAVVGEVSIPELEYAIAAYYLIAMPEASSNLARYDGMVYGERVPGGDVTRSMTLTREQGFGQEVQRRILLGTYALSSGYYDAYYAKAMKVRRLIADEFTTAFGQYDVLVTPTSPFPAFRRGEKASDPLAMYAADVDTVAVNLAGLPALSVPAGFEEVDGKRLPVGVQFIAPALQDERLLALAGALEAVGAVQLEMPQD” the “soluble on expression in E. coli” value was “not soluble”.
With “MGSDKIHHHHHHMAAGCTTPMERRQANGNDEYVNAQTTAPLKVPEGLKSPNYSREYDIPTLGAKANRELVGKNLDIRPPLQVLPMAEGTRVEEGSDNVKVIVESFDNSLDLKQEIFGLLKDHLQSRNIEIVKEDFASGTLETGWIETQEVLESSLWGSDKVFNLKQRYQYQVEVRPHGRTGAVIINLVDHQESYDGDDLKTALSADDKRRYAIDMLNNSIAYMAVKREQAIKAKRVRESLGIGVELVDGAEEGDAFYLAQGDSIRYGLT” the “soluble on expression in E. coli” value was “not soluble”.
With “MGSDKIHHHHHHMAATSNQIKSKVWDNKQEYHLTIESLRMLLENRIPLIRLKEFATPQECEILVAQAELFNFDCYQNVNPKIERIGITVFEYNRISKAAYFQAVERTTKLRDCIMAASFNPLERLMVKIQECTGATVRIASEPLYGSYYAGLIRKIEQGTQLHIDYAPLEQSKWEIGTVIYQLSWNLYLKFSPNNHGQTRIYDRQWQPGDEQYKLDSYGYGDTVIADADTIAFQPYVGDVFIFNTRNYHTVEPMDGQRVTFTSAIGLLPNGEIILWS” the “soluble on expression in E. coli” value was “not soluble”.
In the case of “MGSDKIHHHHHHMAAVALDQYLASVLKSSASDKNEIKLEAGNPDFDLFTIYLENHNTGIHRYRMDVSTILYVAKGTVTIKSAEKVINMRTGNVLLLTEGCKYEVSGQNDDTVLAKLKFAPGFEYRKYFNDFSYKGNRENKIIEQISDSLENEHVLWLKNNQITSASQVMQHIIGGYLDDELFAKALIQAELTAMLIISIRTQRMATPTNLDKTKFEKKSLDNYIDNHFADISLADAAKYFGFNPNYFSNMVKAKTGKSFVDHVGERRMQEARELLAQPDISLKEIISRVGYSSKSFFYKKFNQYYNMTPAAMRKELFRQANINLR”, the “soluble on expression in E. coli” value is reported as “not soluble”.
For “MGSDKIHHHHHHMAAVDLEKLRASGAGKAIGVLTSGGDAQGMNAAVRAVTRMGIYVGAKVFLIYEGYEGLVEGGENIKQANWLSVSNIIQLGGTIIGSARCKAFTTREGRRAAAYNLVQHGITNLCVIGGDGSLTGANIFRSEWGSLLEELVAEGKISETTARTYSHLNIAGLVGSIDNDFCGTDMTIGTDSALHRIMEVIDAITTTAQSHQRTFVLEVMGRHCGYLALVSALASGADWLFIPEAPPEDGWENFMCERLGETRSRGSRLNIIIIAEGAIDRNGKPISSSYVKDLVVQRLGFDTRVTVLGHVQRGGTPSAFDRILSSKMGMEAVMALLEATPDTPACVVTLSGNQSVRLPLMECVQMTKEVQKAMDDKRFDEATQLRGGSFENNWNIYKLLAHQKPPKEKSNFSLAILNVGAPAAGMNAAVRSAVRTGISHGHTVYVVHDGFEGLAKGQVQEVGWHDVAGWLGRGGSMLGTKRTLPKGQLESIVENIRIYGIHALLVVGGFEAYEGVLQLVEARGRYEELCIVMCVIPATISNNVPGTDFSLGSDTAVNAAMESCDRIKQSASGTKRRVFIVETMGGYCGYLATVTGIAVGADAAYVFEDPFNIHDLKVNVEHMTEKMKTDIQRGLVLRNEKCHDYYTTEFLYNLYSSEGKGVFDCRTNVLGHLQQGGAPTPFDRNYGTKLGVKAMLWLSEKLREVYRKGRVFANAPDSACVIGLKKKAVAFSPVTELKKDTDFEHRMPREQWWLSLRLMLKMLAQYRISMAAYVSGELEHVTRRTLSMDKGF”, the “soluble on expression in E. coli” value was “not soluble”.
For “MGSDKIHHHHHHMADFQGETEMTAEVFDPRALRDAFGAFATGVTVVTASDAAGKPIGFTANSFTSVSLDPPLLLVCLAKSSRNYESMTSAGRFAINVLSETQKDVSNTFARPVEDRFAAVDWRLGRDGCPIFSDVAAWFECSMQDIIEAGDHVIIIGRVTAFENSGLNGLGYARGGYFTPRLAGKAVSAAVEGEIRLGAVLEQQGAVFLAGNETLSLPNCTVEGGDPARTLAAYLEQLTGLNVTIGFLYSVYEDKSDGRQNIVYHALASDGAPRQGRFLRPAELAAAKFSSSATADIINRFVLESSIGNFGIYFGDETGGTVHPIANKDAHS”, the “soluble on expression in E. coli” value was “not soluble”.
With “MGSDKIHHHHHHMADRASEAELIKLPVSKLTRGMFVAAIENNGKVAVANAGQIKSRETIAKLVKSGIHHVWVDAERSSDESGLKPKSAQGSAAPAAGAVRPSRANRDLRQTQAKKLLHEAKELIRKVLSETFEGKAIEVKPFEALADNMIESIMLDDDALKCVSALRDKDAYLLEHSVNVAFLLVTFGKYLKLDRETLKQMAVGGVLHDIGKIKVDNKILHKPGKLTPEEFEHMKLHQFYAMDIMSEASALSQISKDVCLMHHEKLDGRGYPRGLKGDEIPLHGRMSCIVDIFDALTATRCYKEAMSPAAAFKILLSLTPFHLDTDLVYEFIRCIGVYPVGSLVELSDGRVGIVWESKDRDALSPVVKCFYSLKHKRYTEVNFVDLLKSDLNIERGVSPSSLDVDPKPFY” the “soluble on expression in E. coli” value was “not soluble”.
With “MGSDKIHHHHHHMADRMQWANALSTRPSLEAAVTDVVQRAVSTLTAPADLGLVFISSAFASEYSRVLPLLAEQLSVPVMIGCSGGGVIGTAASGQTQELEAEAALSLTLAHLPGVNLQVFHVLGEELPDLDSPPDTWINLIGVPPSPTPHFILLSSAFSSGINDLLQGLDFAYPGSVILGGQASVGGMGGRLALFCNGSLHREGTVGLALSGNIVLEPIVAQGCRPIGEPLQVTKAERNIILELDEKVPLVVLRDLIASLSEKERALAQHSLFVGVAMDEFKLSLQQGDFLIRSILGVDPSGGAIAIGDLVRPGQRLQFHLRDSQASAEELEFLLERYQTKPEFDNSAVGALMFSCVGRGEGLYGKPNFDSELFKRYIQDVPVGGFFCGGEIGPVGGRTFLHGYTSVFGICRELSVED” the “soluble on expression in E. coli” value was “not soluble”.
In the case of “MGSDKIHHHHHHMAEDLTPEGGDRAPSKDGSVPAYAGRQSADPGWEWGKIRGDFWKHRNEKPLYSIDGSNVDKYAEQLTPGQVQLVKQKKGYRMDVYPSHRECQASDFVAQNSKANLTGAKLDSTGEQLQTAILPGVPFPQPKNGAEAMLNYLMRYRGEGIEWPSVVTTVSPRPGSSDWIDAISTATQYFPASKQGKRTPHDVDQLSSATFFKMESPPALAGQAFVQRQFFNKDPETFYYFPGQRRVRRMPAYTHDAPAIGFENQYLIDEANMFFGAIDRFDWKLAGKKEMIVPYNAFGMYKFNDKLHDVVTPDGIAAANRRYEMHRVWVVEATLKPSARHVASKKVFYLDEDSWLALVANDYDAQGKLWRVRESYPIPVWELGGACDNEPFAQYDLINGRYVTDQSTIGQGKDIRWYEKTNDPRFKPDFFTSESLRSVSER”, the “soluble on expression in E. coli” value is reported as “not soluble”.
In the case of “MGSDKIHHHHHHMAENFLTQDEVDALLNFENGSKHQQTAQKENEVSYPGGVRPYNMATQERIVRGRMPALEIINARFANSLQIGLYNFLRRGVDISAGSIKTIKYSEFTRSLVVPANINLVSMKPLRGTALFTIDPNLIFLIVDNMFGGDGRFHTRVEGREFTLTEQGIIRRLLDVLFEHYEKAWQSVYPVKFEYIRAEMNPQFANIVTPTDIVVASAFELNLGGNRGEFYTCIPYTMLEPIRDLLNNSMQEDRAEVDKNWIKSLTRQVQGAEIEIIANLGQTQVTLHQILNMQEGDVIALDIPDTVVAIANNVPIMDCHYGILNGHYALKVKTVRSPNETD”, the “soluble on expression in E. coli” value is reported as “not soluble”.
